Test results: patent US20200347146A1 (published 2020)

T1: CD73 on the surface of A375 cells (UniProt P21589 27-549)
T1 chain: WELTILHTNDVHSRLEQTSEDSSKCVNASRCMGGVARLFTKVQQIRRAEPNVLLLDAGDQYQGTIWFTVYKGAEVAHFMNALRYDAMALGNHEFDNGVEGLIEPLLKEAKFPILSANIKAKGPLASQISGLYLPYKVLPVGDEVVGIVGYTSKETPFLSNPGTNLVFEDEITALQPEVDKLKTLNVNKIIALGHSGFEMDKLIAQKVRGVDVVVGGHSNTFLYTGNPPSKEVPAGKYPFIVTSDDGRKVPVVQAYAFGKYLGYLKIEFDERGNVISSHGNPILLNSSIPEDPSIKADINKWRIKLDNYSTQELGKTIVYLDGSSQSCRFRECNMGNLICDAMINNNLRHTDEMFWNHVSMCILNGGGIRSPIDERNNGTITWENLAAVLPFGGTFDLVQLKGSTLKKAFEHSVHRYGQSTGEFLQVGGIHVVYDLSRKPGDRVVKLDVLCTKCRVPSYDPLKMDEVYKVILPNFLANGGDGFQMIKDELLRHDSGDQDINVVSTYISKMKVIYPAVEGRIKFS

T2: human CD73 protein (soluble) (human, UniProt P21589 27-549)
T2 chain: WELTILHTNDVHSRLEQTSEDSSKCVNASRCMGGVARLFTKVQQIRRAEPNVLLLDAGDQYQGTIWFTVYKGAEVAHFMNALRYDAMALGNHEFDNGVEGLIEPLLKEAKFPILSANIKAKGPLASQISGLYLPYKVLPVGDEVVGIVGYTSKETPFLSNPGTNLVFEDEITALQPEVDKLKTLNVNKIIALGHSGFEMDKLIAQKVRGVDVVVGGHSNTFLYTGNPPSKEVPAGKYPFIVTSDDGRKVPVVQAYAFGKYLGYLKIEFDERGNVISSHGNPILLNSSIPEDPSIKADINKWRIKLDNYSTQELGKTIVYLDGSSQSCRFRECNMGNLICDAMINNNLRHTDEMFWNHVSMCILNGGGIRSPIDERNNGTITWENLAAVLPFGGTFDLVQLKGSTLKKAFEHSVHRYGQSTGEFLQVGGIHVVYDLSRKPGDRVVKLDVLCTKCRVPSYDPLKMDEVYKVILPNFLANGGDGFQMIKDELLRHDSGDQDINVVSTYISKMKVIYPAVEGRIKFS


Experiments:
[1] = molecular target: T1, CD73 on the surface of A375 cells; test: flow cytometry cell binding
[2] = molecular target: T2, human CD73 protein (soluble); test: ELISA
[3] = molecular target: human PD-L1 protein (soluble) (human, UniProt Q9NZQ7 19-238); test: ELISA
Sequence of human PD-L1 protein (soluble) (Q9NZQ7 19-238): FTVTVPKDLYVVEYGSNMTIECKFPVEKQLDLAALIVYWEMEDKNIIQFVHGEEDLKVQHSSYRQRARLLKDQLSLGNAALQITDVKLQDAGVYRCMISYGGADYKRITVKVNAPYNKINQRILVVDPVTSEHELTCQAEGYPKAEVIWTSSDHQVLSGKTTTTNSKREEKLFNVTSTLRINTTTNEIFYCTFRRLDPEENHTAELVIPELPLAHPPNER

[4] = molecular target: human PD-L1 on PD-L1 positive Raji cells (human, UniProt Q9NZQ7 19-290); test: flow cytometry cell binding
Sequence of human PD-L1 on PD-L1 positive Raji cells (Q9NZQ7 19-290): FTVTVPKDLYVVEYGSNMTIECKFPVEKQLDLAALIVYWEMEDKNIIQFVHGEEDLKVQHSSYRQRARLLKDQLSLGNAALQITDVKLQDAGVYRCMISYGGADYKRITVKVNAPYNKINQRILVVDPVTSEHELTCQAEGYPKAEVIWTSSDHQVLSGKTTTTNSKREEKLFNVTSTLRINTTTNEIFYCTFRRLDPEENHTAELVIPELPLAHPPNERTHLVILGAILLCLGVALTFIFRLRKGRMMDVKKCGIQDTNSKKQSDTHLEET

EC50 [1] [nM] | EC50 [2] [nM] | EC50 [3] [nM] | EC50 [4] [nM] | Binder
2.06 | 0.0575 |  |  | hu309 (monospecific anti-CD73 antibody with the 309 VH and 309 VL) (antibody, V domains shown) VH: EVQLQESGPGLVKPSETLSLTCAVSGYSITSGYYWNWIRQPPGKKLEWMGYINYGGSNGYNPSLKSRITISRDTSKNQFSLKLSSVTAADTAVYYCARDYDAYYEALDDWGQGTTVTVSS VL: EIVLSQSPATLSLSPGERATLSCRASSRVNYMHWYQQKPGQSPRPWISATSNLASGVPARFSGSGSGTSYTLTISSLEPEDFAVYYCQQWSSNPPTFGGGTKVEIK
2.24 | 0.0715 | 0.179 | 0.255 | anti-CD73/PD-L1 bispecific antibody 309-H12 (structure A of FIG. 1) (bispecific antibody) heavy: not shown light: EIVLSQSPATLSLSPGERATLSCRASSRVNYMHWYQQKPGQSPRPWISATSNLASGVPARFSGSGSGTSYTLTISSLEPEDFAVYYCQQWSSNPPTFGGGTKVEIKRTVAAPSVFIFPPSDEQLKSGTASVVCLLNNFYPREAKVQWKVDNALQSGNSQESVTEQDSKDSTYSLSSTLTLSKADYEKHKVYACEVTHQGLSSPVTKSFNRGEC
 |  | 0.00948 | 0.0237 | H12(PDL1) (monospecific anti-PD-L1 antibody with the H12 VH and H12 VL) (antibody, V domains shown) VH: EVQLVESGGGLVQPGGSLRLSCAASGFTFSSYDMSWVRQAPGKSLEWVATISDAGGYIYYRDSVKGRFTISRDNAKNSLYLQMNSLRDEDTAVYICARELPWRYALDYWGQGTTVTVSS VL: DIQMTQSPSSLSASVGDRVTITCKASQDVTPAVAWYQQKPGKAPKLLIYSTSSRYTGVPSRFSGSGSGTDFTFTISSLQPEDIATYYCQQHYTTPLTFGQGTKLEIK
